Assays:
[1] = target: T1, ZIKV-VLP (Native Antigen Inc.) (Zika virus); assay: BLI binning on ZIKV-VLP; 1st mAb: 242-3
T1 construct: also called Zika VLP; ZVLP

[2] = target: T1, ZIKV-VLP (Native Antigen Inc.); assay: BLI binning on ZIKV-VLP; 1st mAb: 102-1
[3] = target: T1, ZIKV-VLP (Native Antigen Inc.); assay: BLI binning on ZIKV-VLP; 1st mAb: 270-12
[4] = target: T1, ZIKV-VLP (Native Antigen Inc.); assay: BLI binning on ZIKV-VLP; 1st mAb: 78-2
[5] = target: T1, ZIKV-VLP (Native Antigen Inc.); assay: BLI binning on ZIKV-VLP; 1st mAb (row): 102-1
[6] = target: T1, ZIKV-VLP (Native Antigen Inc.); assay: BLI binning on ZIKV-VLP; 1st mAb (row): 306-2
[7] = target: T1, ZIKV-VLP (Native Antigen Inc.); assay: BLI binning on ZIKV-VLP; 1st mAb: C10
[8] = target: T1, ZIKV-VLP (Native Antigen Inc.); assay: BLI (Octet), supernatant IgG captured on Protein A biosensor, ZIKV-VLP 3.3 µg/mL in solution, 1:1 model
[9] = target: T1, ZIKV-VLP (Native Antigen Inc.); assay: BLI binning on ZIKV-VLP; 1st mAb (row): 242-3
[10] = target: T1, ZIKV-VLP (Native Antigen Inc.); assay: BLI binning on ZIKV-VLP; 1st mAb: 11-3
[11] = target: T1, ZIKV-VLP (Native Antigen Inc.); assay: BLI binning on ZIKV-VLP; 1st mAb: 306-2
[12] = target: T1, ZIKV-VLP (Native Antigen Inc.); assay: ELISA, purified recombinant mAb
[13] = target: T1, ZIKV-VLP (Native Antigen Inc.); assay: BLI binning on ZIKV-VLP; 1st mAb: 4G2
[14] = target: T1, ZIKV-VLP (Native Antigen Inc.); assay: BLI binning on ZIKV-VLP; 1st mAb: Ab1
[15] = target: T1, ZIKV-VLP (Native Antigen Inc.); assay: indirect ELISA, subclone supernatant
[16] = target: T1, ZIKV-VLP (Native Antigen Inc.); assay: BLI binning on ZIKV-VLP; 1st mAb (row): 270-12
[17] = target: T1, ZIKV-VLP (Native Antigen Inc.); assay: BLI binning on ZIKV-VLP; 1st mAb: 289-3
[18] = target: T1, ZIKV-VLP (Native Antigen Inc.); assay: BLI binning on ZIKV-VLP; 1st mAb (row): 289-3
[19] = target: T1, ZIKV-VLP (Native Antigen Inc.); assay: BLI binning on ZIKV-VLP; 1st mAb: Ab2
[20] = target: T1, ZIKV-VLP (Native Antigen Inc.); assay: ELISA, hybridoma supernatant (Abcam data)
[21] = target: T1, ZIKV-VLP (Native Antigen Inc.); assay: BLI binning on ZIKV-VLP; 1st mAb: 329-2
[22] = target: T1, ZIKV-VLP (Native Antigen Inc.); assay: BLI binning on ZIKV-VLP; 1st mAb (row): C10
[23] = target: T1, ZIKV-VLP (Native Antigen Inc.); assay: BLI binning on ZIKV-VLP; 1st mAb: 260-2
[24] = target: T1, ZIKV-VLP (Native Antigen Inc.); assay: BLI binning on ZIKV-VLP; 1st mAb: 181-4
[25] = target: T1, ZIKV-VLP (Native Antigen Inc.); assay: indirect ELISA, purified antibody serially diluted from 10 µg/ml

| Binder | response of 2nd mAb [1] | response of 2nd mAb [2] | response of 2nd mAb [3] | response of 2nd mAb [4] | response of 2nd mAb [5] | response of 2nd mAb [6] | response of 2nd mAb [7] | koff [8] [s⁻¹] | response of 2nd mAb [9] | response of 2nd mAb [10] | response of 2nd mAb [11] | response of 2nd mAb [13] | response of 2nd mAb [14] | response of 2nd mAb [16] | response of 2nd mAb [17] | response of 2nd mAb [19] | OD [20] [OD] | response of 2nd mAb [21] | response of 2nd mAb [23] | response of 2nd mAb [24] | further results |
| --- | --- | --- | --- | --- | --- | --- | --- | --- | --- | --- | --- | --- | --- | --- | --- | --- | --- | --- | --- | --- | --- |
| anti-ZIKV antibody 242-3 (antibody, V domains shown, also called clone 242-3) VH: QAQLEESGGDLVKPEGSLTLTCTASGFSFTDRHYMCWIRQAPGKGLEWIACVYPGSSGSTYYASWARGRFTISKTSSTTVTLRMTSLTAADTATYFCARSSYPDSSGYSYGMDLWGPGTLVTVSS VL: DIVMTQTPASVEAAVGGTVTIKCQASQNINSNLAWYQQKPGQRPKFLMYLTSKLASGVPSRFRGSGSGTQFTLTISDLECADAATYYCQTYYDISNYGYAFGGGTEVVVK | 0.08 | 0.1 | 0.04 | 0.18 | 0.0181 | 0.0732 | 5.12 | < 1e-07 | 0.005 | 0.4 | 0.08 | 0.93 | 0.25 | 0.0325 | 0.04 | 7.67 | 0.97 | -0.01 | 0.06 | 0.02 | ELISA OD [12]: 3.07 OD; VLP (OD) binding [15]: 0.97 OD; response of 2nd mAb [18]: 0.0219; response of 2nd mAb [22]: 0.0363 |
| anti-ZIKV antibody 270-12 (antibody, V domains shown, also called clone 270-12) VH: QAQLEESGGDLVKPEGSLTLTCTASGFSFTDRHYMCWVRQAPGKGLEWIACVYPGSSGSTYYASWARGRFTISKTSSTTVTLRMTSLTAADTATYFCARSSYPDSSGYSYGMDLWGPGTLVTVSS VL: DIVMTQTPASVEAAVGGTVTIKCQASQDINSNLAWYQQKPGQRPKFLMYLTSKLASGVPSRFRGSGSGTQFTLTISDLECADAATYYCQTYYDISNYGYAFGGGTEVVVKG | 0.04 | 0.07 | 0.02 | 0.44 | -0.004 | 0.0432 | 4.27 |  | -0.0103 | 0.47 | 0.31 | 0.91 | 0.34 | 0.0171 | 0.02 | 3.5 | 1.27 | 0 | 0 | 0.01 | EC50 [25]: 0.0128 µg/mL; response of 2nd mAb [18]: 0.0261; response of 2nd mAb [22]: 0.0344 |
| anti-ZIKV antibody 11-3 (antibody, V domains shown, also called clone 11-3) VH: QEQLVESGGGLVQPEGSLTITCTGSGFSFSSRFYMCWVRQAPGKGLEWIACIYGGSSGSTYYASWAKGRFTISKTSSTTVTLQISSLTAADTATYFCARGGSTAAAGFNLWGPGTLLTVSS VL: DVVMTQTPASVSATVGGTVTIKCQASEDIYNLLAWYQQKPGQPPKLLIYYASTLASGVPSRFKGSGSGTEFTLTISDLECADAATYYCQCNDYGGTYVPNAFGGGTEVVVKG | 0.42 | 0.45 | 0.38 | 0.23 |  |  | 3.14 | < 1e-07 |  | 0.06 | 0.43 | 0.75 | 0.41 |  | 0.42 | 2.71 | 2.83 | 0.44 | 0.47 | 0.39 | EC50 [25]: 0.00657 µg/mL |
| anti-ZIKV antibody 306-2 (antibody, V domains shown) VH: QSLEESGGDLVKPGASLTLTCTASGFDFSDRYYMCWVRQAPGKGLEWIGCIYVGSGDTYYASWAKGRFTISRTSSTTVTLQMTRLTAADTATYFCARHPGTYFTLWGPGTLVTVSS VL: DVVMTQTPSSVSAAVGGTVTINCQASQNIVNNLAWYQQRPGQPPKLLIYDTSTLASGVPSRFKGSGSGTEFTLTISDLECADAATYYCQTYYYYNKIINGFGGGTEVVVKG | 0.04 | 0.07 | -0.01 | 0.26 | 0.0269 | 0.0225 | 4.54 | < 1e-07 | 0.019 | 0.34 | 0.01 | 0.64 | 0.19 | 0.0125 | 0.03 | 4.51 | 1.15 | -0.03 | 0 | -0.02 | ELISA OD [12]: 3.3 OD; VLP (OD) binding [15]: 1.15 OD; response of 2nd mAb [18]: 0.023; response of 2nd mAb [22]: -0.0006 |
| anti-ZIKV antibody 78-2 (antibody, V domains shown, also called clone 78-2) VH: QQQLVESGGGLVKPGASLTLNCKASGLDFSTNSYMCWVRQAPGKGLEWIACIYVGDSSEIYYASWAKGRFTISKTSSTTVTLQMTSLTAADTATYFCARDLPSFTAPYAGYLRLWGPGTLVTVSS VL: QPVLTQPPSLSASLGTTARLTCTLRTGYNVGDYPLLWLQRVPGRPPRYLLTYHTEEFKHQGSGVHSRFSGSKDASENAGVLSISGLQPEDEANYYCYTVHATESSLHYVFGGGTQLTVTG | 0.33 | 0.32 | 0.28 | 0.06 |  |  | 3.41 | < 1e-07 |  | 0.42 | 0.28 | 0.52 | 0.38 |  | 0.32 | 2.46 | 2.67 | 0.33 | 0.33 | 0.3 | EC50 [25]: 0.0319 µg/mL |
